The results in this text go back to the supplement of paper PMC12042874.

± gives the uncertainty stated by the source.

The nature of the data set: amyloid nucleation score (Sup35N fusion, yeast selection) (log enrichment); library NNK2; higher = more nucleation; inactive = no reads after selection. In short, it runs like this: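 The nucleation score equals the log enrichment of output over input reads from DiMSum, centred on the mode score of non-aggregating sequences. It was computed only for sequences with 100 or more input reads. The reads came from Illumina sequencing of plasmid inserts from psi-negative yeast expressing Sup35N fused to peptides of 20 random codons, induced with 100 μM copper sulfate for 24 hours and grown 7 days at 30°C without adenine and uracil.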
VSMIVGSDNVPVSFETDVSV displayed an amyloid nucleation score of 1.01 ± 0.39.
As for VSNRLRLSFKRVPHHAGYRP, the figure is 2.76 ± 0.2.
Next, VSRDLEVH: -0.001 ± 0.31; VSTSYVTTIVF: -0.237 ± 0.41.
Next, VSVDGKLRFRPT: 0.313 ± 0.45; VSYSGNRYWCSFVNKKAGGN: 1.32 ± 0.27; VSYYIRVYF: 5.648 ± 0.054.
For the substance VTCASWYYGKISGLYACYRL, the amyloid nucleation score is 0.641 ± 0.34.
Next, VTDRNIRLDPVALKHASVYG: -0.368 ± 0.38.
As for VTGIATTS, the figure is 0.44 ± 0.3; as for VTGTT, -0.01 ± 1; as for VTICIGVAFYVFCTSTSNCM, 5.242 ± 0.039.
VTKILCSRTWGKSG yielded an amyloid nucleation score of 0.325 ± 0.44.
As for VTKSYITRSVFSVGNYSETS, the figure is -0.226 ± 1.1; as for VTKVLQFCSPSYLLYSRLNV, 0.709 ± 0.47.
As for VTLIRSSRVATSCHGGTLFC, the figure is 3.45 ± 0.092; as for VTSGGLEWSRD, 3.11 ± 0.05; as for VTSNGKRTWHVAAAFGAPGE, 2.54 ± 0.12.
With VTVRAQY, the amyloid nucleation score is -0.497 ± 0.45.
Next, VVDSTVGRADGTCGGVVGFA: 0.87 ± 0.41.
Next, VVDVVIGYWGRVMSDGCVAG: 0.816 ± 0.24; VVEFNVLHDDLEVQDKT: -1.16 ± 0.56; VVFRIVNRACVMYGVTGGND: -0.915 ± 0.63.
As for VVILS, the figure is 1.28 ± 0.29.
In turn, VVILTFKAVYTAKFYACCAV came in with an amyloid nucleation score of -0.104 ± 0.45.
Next, VVKYFCDHI: 4.5 ± 0.07; VVNDIATLLRVMNEYYAESA: -0.531 ± 0.79; VVNKLF: “inactive”.
As for VVPCWSVNKDSRSDRSD, the figure is -0.1 ± 1.
Next, VVRAVYGYQFYGIVL: 0.648 ± 0.25.
In turn, VVRHLWMTKYCRFMFISTVY registered an amyloid nucleation score of -0.898 ± 0.34.
Consider VVRHSLKRL, for which the amyloid nucleation score is -0.228 ± 1.1.
As for VVRMRENKRNIL, the entry is “inactive”.
As for VVRVLLVWMFLLTLWHHLVN, the figure is -0.158 ± 0.34; as for VVSSGLHHRLLLCRIEGA, 0.526 ± 0.26; as for VVSTSYIGGKKRSFCVRCGG, -0.73 ± 0.49.
As for VVSVCLLGHNDKVLSYAQLC, the figure is 0.071 ± 0.51; as for VVVFMHV, 1.51 ± 0.32.
Substance VVVPDGFRNYEYGNSTLFVI yielded an amyloid nucleation score of -0.99 ± 1.1.
Next, VVWVSITKWATRAVISHGDT: 0.617 ± 0.32; VVYLEIVTRGATGYLVCLPC: -0.437 ± 0.6; VVYRYRVRHCL: 0.725 ± 0.27.
Next, VWALKGMIYN: 0.33 ± 0.17; VWDNIVPPQLISRRS: -0.813 ± 1.1; VWLTKIIGPVRKLVKNTLGC: 5.542 ± 0.047.
Next, VWMHMSGSIIKSWFLVRCFS: -0.506 ± 0.38.
On to VWQQS, for which the amyloid nucleation score came to 0.668 ± 0.49.
Consider VWYRLTDAVYKRLTFLDII, for which the amyloid nucleation score is -0.416 ± 0.56.
Next, VYALTGMDKYGGLALYLSWR: 0.307 ± 0.44; VYAYRTEFQRW: 0.886 ± 0.47; VYCFNSRSNFHTLMLSSGYG: -0.594 ± 0.55.
Next, VYCVDIFCTESLVCPTQTWG: 6.055 ± 0.06; VYELCCLYMWLGHSNYAADM: 5.33 ± 0.044; VYGCGSCLNCVVCMERCG: 9.094 ± 0.048.
Next, VYKMIVSRVHC: -1.17 ± 1; VYLGIFRL: 2.76 ± 0.13.
On to VYNLARSRSKAERVV, for which the amyloid nucleation score was found to be 0.201 ± 1.
Next, VYNWGGRLKP: 0.147 ± 0.49.
Consider VYPVSPIMKGV, for which the amyloid nucleation score was determined as 0.163 ± 0.49.
As for VYTQYYNTKSKISYCFLRLI, the entry is “inactive”; as for VYTVVYGYNWISCDHFSWDT, 7.47 ± 0.08.
Next, VYVFDIVRLG: 0.465 ± 0.8; WCCPPHGRQP: 0.876 ± 0.43.
Next, WCEGHKSW: -0.817 ± 1; WCFCSLLCVSGCLRPDPELP: 1.28 ± 0.22; WCFFRVAFNW: 1.88 ± 0.17.
As to WCFLT, the amyloid nucleation score was -0.343 ± 1.1.
Next, WCIKANSMSRNVYVEEMGER: -0.143 ± 0.24.
Next, WDIIF: -1.45 ± 0.34.
Take WDNDQHIQRNLY: the amyloid nucleation score result is “inactive”.
Next, WDSDRSYVLSLFADVPLAKC: 0.035 ± 1; WELHMI: -0.61 ± 1.1; WFDKFRMCEEFAYYFFLPQW: -0.856 ± 0.63.
Next, WFENNDESMGQEWNKHCTSV: 0.718 ± 0.24; WFHVITFFLGASCIMWTKTR: “inactive”.
As for WFIILRLIYVYGTNCAVYMV, the figure is -0.003 ± 0.42; as for WFRKGHHVVT, 1.08 ± 0.41; as for WFSECCSMASIGHSDTMDGS, -0.567 ± 1.1.
The substance WGENARAESRTEEMLL gave an amyloid nucleation score of 1.81 ± 0.22.
Next, WHCVRVIQRSWCVKEGSKGC: 0.118 ± 0.45; WHENMSGTPKLASTNNGSKR: 2.61 ± 0.18.
Next, WHGPYYCGGCRTDIVCWNRA: 5.888 ± 0.05; WHSDSQTRRSSLSLLVCQID: 0.935 ± 0.66.
Next, WIILGTSSAVWRTHDYLA: 3.43 ± 0.06.
In turn, WIMNKANNCKCFIEDTNWS came in with an amyloid nucleation score of 7.352 ± 0.044.
Consider WKIQACVSYQQGAVRGVCVD, for which the amyloid nucleation score came out at 0.139 ± 0.34.
The substance WLDSQWNLYLDLYHLYRSCR gave an amyloid nucleation score of 3.22 ± 0.12.
As for WLLGMYVIRGRQSYNSKDVR, the figure is 3.38 ± 0.054.
Next, WLLVDGEH: 0.025 ± 0.45; WLMTYFNISSGFKSVTWVES: 3.69 ± 0.11; WLPNQVKGHLSFRMCSDIRH: 4.334 ± 0.035.
As for WLPYTCNFVMTVSRYSSMRG, the entry is “inactive”; as for WLSTVVL, “inactive”; as for WLTEVY, -0.587 ± 0.79.
WLVSSVSCQPMSQSSFVGGL showed an amyloid nucleation score of 5.498 ± 0.05.
Next, WLVTAMSMLVCLPGYESLYW: 1.98 ± 0.21.
Next, WLWIKLEPLICSNFCWVVLW: 0.537 ± 0.48; WLYYDGSFW: -0.429 ± 0.76.
As for WMGIWYGCVWVFGMVGANNR, the figure is 2.2 ± 0.063; as for WMLCLDLKANKMCLMVISME, -1.32 ± 0.76.
On to WMLNLDLLIFASLRGVVEGD, for which the amyloid nucleation score entry is “inactive”.
The substance WMYTSRPNSSQTIRGWRATY gave an amyloid nucleation score of -0.046 ± 0.39.
As for WNECVFGAPAFSRE, the figure is 3.11 ± 0.15.
Next, WNVFKLSGSSYV: -0.483 ± 0.31.
Substance WQCKLPSNYGFGTK yielded an amyloid nucleation score of 0.11 ± 0.77.
